According to patent US20120114590A1 (priority 2005, published 2012):
Where two headings read alike, the source gives them in different places.

Key:
HSV-2 = HSV-2 inhibition of cytopathic effect assay in Vero cells; assay type: cell-based, Herpes Simplex Virus-2; settings: CPE assay
Description: The assay involves the killing of Vero cells by the cytopathic HSV-2 virus and the inhibition of cell killing by IL-28 and EL-29. The Vero cells are propagated in Dulbecco's modified essential medium (DMEM) containing phenol red with 10% horse serum, 1% glutamine and 1% penicillin-streptomycin, while the CPE inhibition assays are performed in DMEM without phenol red with 2% FBS, 1% glutamine and 1% Pen-Strep. On the day preceding the assays, cells were trypsinized (1% trypsin-EDTA), washed, counted and plated out at 10^4 cells/well in a 96-well flat-bottom BioCoat® plates (Fisher Scientific, Pittsburgh, Pa.) in a volume of 100 μl/well. The next morning, the medium was removed and a pre-titered aliquot of virus was added to the cells. The amount of virus used is the maximum dilution that would yield complete cell killing (>80%) at the time of maximal CPE development. Cell viability is determined using a CellTiter 96® reagent (Promega) according to the manufacturer's protocol, using a Vmax plate reader (Molecular Devices, Sunnyvale, Calif.). Compounds are tested at six concentrations each, diluted in assay medium in a half-log series. Acyclovir was used as a positive control. […] The average background and drug color-corrected data for percent CPE reduction and percent cell viability at each concentration are determined relative to controls and the IC50 calculated relative to the TC50.

HCV replicon = settings: IFNα at 10 IU/ml, replicon clones, compared to untreated control cell lines; cited from earlier work
Rhino 2 [1] = assay type: cell-based, rhino virus; settings: Rhino 2, KB cells, Neutral Red Assay
[2] = tested on: Influenza (type A [H3N2]); assay type: cell-based; settings: Vero
Dengue virus [3] = assay type: cell-based; settings: Vero
[4] = tested on: Respiratory syncytial virus; assay type: cell-based; settings: MA-104 cells, Neutral Red Assay
[5] = tested on: Influenza (type A [H3N2]); assay type: cell-based; settings: Maden-Darby Canine Kidney
[6] = tested on: Influenza (type A [H3N2]); assay type: cell-based; settings: Vero cells, Neutral Red Assay
[7] = tested on: 293 HEK cells overexpressing zcytor19; assay: Inhibition of ligand-induced ISRE-luciferase signaling by soluble receptors; assay type: cell-based, human; settings: 10 ng/ml ligand, 10 micrograms/ml soluble receptor, 4-hour; relative to PBS alone
[8] = tested on: Venezuelan equine encephalitis virus; assay type: cell-based; settings: Vero
West Nile virus [9] = assay type: cell-based; settings: Vero
Parainfluenza virus [10] = assay type: cell-based
[11] = tested on: Influenza (type A [H3N2]); assay type: cell-based; settings: Maden-Darby Canine Kidney cells, Neutral Red Assay
Polio virus [12] = assay type: cell-based; settings: Vero
Polio virus [13] = assay type: cell-based; settings: Vero cells, Neutral Red Assay
Rhino 2 [14] = assay type: cell-based, rhino virus; settings: Rhino 2, KB
[15] = tested on: liver, spleen and blood of mice; assay: ISG gene expression (OAS, Pkr, Mx1) in liver, spleen and blood of injected C57BL/6 mice (real-time PCR); assay type: in vivo, mouse; settings: C57BL/6 mice, i.p or i.v, 10 μg-250 μg
Description: Mice were sacrificed at various time points (1 hr-48 hr). Spleens and livers were isolated from mice, and RNA was isolated. RNA was also isolated from the blood cells. The cells were pelleted and RNA isolated from pellets using RNAEasy®-kit (Qiagen). RNA was treated with DNase (Amicon) to rid RNA of any contaminating DNA. cDNA was generated using Perkin-Elmer RT mix (Perkin-Elmer). ISG gene induction was measured by real-time PCR using primers and probes specific for mouse OAS, Pkr and Mx1. To obtain quantitative data, HPRT real-time PCR was duplexed with ISG PCR. A standard curve was calculated using known amounts of IFN-stimulated mouse PBLs. All data are shown as expression relative to internal HPRT expression.

Vaccinia virus [16] = assay type: cell-based; settings: Vero cells, Neutral Red Assay
West Nile virus [17] = assay type: cell-based; settings: Vero cells, Neutral Red Assay
[18] = tested on: Venezuelan equine encephalitis virus; assay type: cell-based; settings: Vero cells, Neutral Red Assay
HHV-8 = HHV-8 replication in BCBL-1 cells (TaqMan PCR extracellular HHV-8 DNA; dye uptake TC50); assay type: cell-based, human herpesvirus-8; settings: six days
Description: The therapeutic index (TI) is calculated as TC50/IC50.

Rhino 9 [19] = assay type: cell-based, rhino virus; settings: Rhino 9, HeLa
Rhino 9 [20] = assay type: cell-based, rhino virus; settings: Rhino 9, HeLa cells, Neutral Red Assay
Pichinde virus [21] = assay type: cell-based
Coxsackie B4 virus [22] = assay type: cell-based; settings: KB
Dengue virus [23] = assay type: cell-based; settings: Vero cells, Neutral Red Assay
Pichinde virus [24] = assay type: cell-based; remark: listed apart in the source
[25] = tested on: Respiratory syncytial virus; assay type: cell-based
Coxsackie B4 virus [26] = assay type: cell-based; settings: KB cells, Neutral Red Assay
Adenovirus [27] = assay type: cell-based
Adenovirus [28] = assay type: cell-based; settings: A549 cells, Neutral Red Assay
Vaccinia virus [29] = assay type: cell-based; settings: Vero
Parainfluenza virus [30] = assay type: cell-based; settings: MA-104 cells, Neutral Red Assay
AML-12 cells = assay: ISG induction in the mouse liver cell line AML-12 (real-time PCR); assay type: cell-based; settings: AML-12, 20 ng/ml, 48 hour time point; mRNA relative to HPRT gene expression
Description: AML-12 cells were plated in 6-well plates in complete DMEM media at a concentration of 2×10^6 cells/well. […] As a control, cells were either stimulated with mouse IFNα (positive control) or unstimulated (negative). […] RNA was isolated from cell pellets using RNAEasy-kit® (Qiagen, Valencia, Calif.). RNA was treated with DNase (Millipore, Billerica, Mass.) to clean RNA of any contaminating DNA. cDNA was generated using Perkin-Elmer RT mix. ISG gene induction was evaluated by real-time PCR using primers and probes specific for mouse OAS, Pkr and Mx1. To obtain quantitative data, HPRT real-time PCR was duplexed with ISG PCR. A standard curve was obtained using known amounts of RNA from IFN-stimulated mouse PBLs. All data are shown as expression relative to internal HPRT expression.

[31] = target: zcyto21 (human IL-29) (human) (UniProt Q8IU54); assay: cell-based or functional assay
[32] = target: T1, zcyto20 (human IL-28A) (human) (UniProt Q8IZJ0); assay: cell-based or functional assay
T1 sequence: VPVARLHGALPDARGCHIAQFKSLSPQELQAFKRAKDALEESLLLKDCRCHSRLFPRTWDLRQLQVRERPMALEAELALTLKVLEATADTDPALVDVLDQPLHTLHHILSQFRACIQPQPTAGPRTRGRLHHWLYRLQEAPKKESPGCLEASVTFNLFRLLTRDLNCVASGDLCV

[33] = target: T2, zcyto24 (mouse IL-28A) (mouse) (UniProt Q4VK74); assay: cell-based or functional assay
T2 sequence: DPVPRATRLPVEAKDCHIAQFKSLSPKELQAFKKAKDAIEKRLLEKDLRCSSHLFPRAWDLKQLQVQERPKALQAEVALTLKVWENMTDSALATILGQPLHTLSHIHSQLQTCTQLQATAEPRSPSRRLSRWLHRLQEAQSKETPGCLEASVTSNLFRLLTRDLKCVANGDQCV

Daudi cells = assay: Daudi cell proliferation (Alamar Blue); assay type: cell-based, human; settings: 1000 ng/ml to 0.5 ng/ml, 72 h
Description: Human Daudi cells were suspended in RPMI+10% FBS at 50,000 cells/milliliter and 5000 cells were plated per well in a 96 well plate. […] IL-29-CEE was used at a concentration range of from 1000 ng/ml to 0.5 ng/ml. […] IFN-α2a was used at a concentration range of from 62 ng/ml to 0.03 ng/ml. Cells were incubated for 72 h at 37° C.

IFNα
antiviral activity against HSV-2 (HSV-2): no antiviral activity
reduction of the amount of HCV RNA (HCV replicon): 85%

B1: IL-28A: human IL-28A cytokine polypeptide (zcyto20), e.g. SEQ ID NO:18; CHO-derived in Examples 16 and 18 (protein, listed as Homo sapiens)
chain: MKLDMTGDCTPVLVLMAAVLTVTGAVPVARLHGALPDARGCHIAQFKSLSPQELQAFKRAKDALEESLLLKDCRCHSRLFPRTWDLRQLQVRERPMALEAELALTLKVLEATADTDPALVDVLDQPLHTLHHILSQFRACIQPQPTAGPRTRGRLHHWLYRLQEAPKKESPGCLEASVTFNLFRLLTRDLNCVASGDLCV
modifications: SIGNAL (1)...(25)
EC50 NR (Rhino 2 [1]): >10 µg/mL
IC50 NR (Rhino 2 [1]): >10 µg/mL
EC50 Visual [2]: 0.1 µg/mL
IC50 Visual ([2]; numerator of SI): >10 µg/mL
EC50 Visual (Dengue virus [3]): 0.01 µg/mL
IC50 Visual (Dengue virus [3]; numerator of SI): >10 µg/mL
EC50 NR [4]: >10 µg/mL
IC50 NR [4]: >10 µg/mL
EC50 Visual [5]: >10 µg/mL
IC50 Visual ([5]; numerator of SI): >10 µg/mL
EC50 NR [6]: 0.25 µg/mL
IC50 NR [6]: >10 µg/mL
Percent Inhibition of Ligand-induced ISRE Signaling by HuCRF2-4-Fc [7]: 80%
Percent Inhibition of Ligand-induced ISRE Signaling by Huzcytor19-Fc [7]: 92%
Percent Inhibition of Ligand-induced ISRE Signaling by Huzcytor19-Fc/huCRF2-4-Fc [7]: 16%
Percent Inhibition of Ligand-induced ISRE Signaling by Muzcytor19-Ig [7]: 91%
EC50 Visual [8]: 0.01 µg/mL
IC50 Visual ([8]; numerator of SI): >10 µg/mL
EC50 Visual (West Nile virus [9]): 0.01 ng/mL
IC50 Visual (West Nile virus [9]; numerator of SI): >10 µg/mL
EC50 Visual (Parainfluenza virus [10]; MA-104): >10 µg/mL
IC50 Visual (Parainfluenza virus [10]; MA-104, numerator of SI): >10 µg/mL
EC50 NR [11]: >10 µg/mL
IC50 NR [11]: >10 µg/mL
EC50 Visual (Polio virus [12]): >10 µg/mL
IC50 Visual (Polio virus [12]; numerator of SI): >10 µg/mL
EC50 NR (Polio virus [13]): >1.672 µg/mL
IC50 NR (Polio virus [13]): >10 µg/mL
EC50 Visual (Rhino 2 [14]): >10 µg/mL
IC50 Visual (Rhino 2 [14]; numerator of SI): >10 µg/mL
ISG gene expression (OAS, Pkr, Mx1) in the livers, spleen and blood of mice [15]: did not induce ISG gene expression
EC50 NR (Vaccinia virus [16]): >10 µg/mL
IC50 NR (Vaccinia virus [16]): >10 µg/mL
EC50 NR (West Nile virus [17]): 0.1 ng/mL
IC50 NR (West Nile virus [17]): >10 µg/mL
EC50 NR [18]: 0.035 µg/mL
IC50 NR [18]: >10 µg/mL
IC50 (extracellular HHV-8 DNA) (HHV-8): 1 µg/mL
EC50 Visual (Rhino 9 [19]): >10 µg/mL
IC50 Visual (Rhino 9 [19]; numerator of SI): >10 µg/mL
EC50 NR (Rhino 9 [20]): 1.726 µg/mL
IC50 NR (Rhino 9 [20]): >10 µg/mL
EC50 NR (Pichinde virus [21]): >10 µg/mL
IC50 NR (Pichinde virus [21]): >10 µg/mL
EC50 Visual (Coxsackie B4 virus [22]): >10 µg/mL
IC50 Visual (Coxsackie B4 virus [22]; numerator of SI): >10 µg/mL
EC50 NR (Dengue virus [23]): 0.1 µg/mL
IC50 NR (Dengue virus [23]): >10 µg/mL
EC50 Visual (Pichinde virus [24]): >10 µg/mL
IC50 Visual (Pichinde virus [24]): >10 µg/mL
EC50 Visual ([25]; MA-104): >10 µg/mL
IC50 Visual ([25]; MA-104, numerator of SI): >10 µg/mL
EC50 NR (Coxsackie B4 virus [26]): >10 µg/mL
IC50 NR (Coxsackie B4 virus [26]): >10 µg/mL
EC50 Visual (Adenovirus [27]; A549): >10 µg/mL
IC50 Visual (Adenovirus [27]; A549, numerator of SI): >10 µg/mL
EC50 NR (Adenovirus [28]): >10 µg/mL
IC50 NR (Adenovirus [28]): >10 µg/mL
EC50 Visual (Vaccinia virus [29]): >10 µg/mL
IC50 Visual (Vaccinia virus [29]; numerator of SI): >10 µg/mL
EC50 NR (Parainfluenza virus [30]): >10 µg/mL
IC50 NR (Parainfluenza virus [30]): >10 µg/mL
Mx1 (AML-12 cells): 0.06
OAS (AML-12 cells): 0.04
PkR (AML-12 cells): 0.02

B2: murine zcytor19-Ig homodimer (Fc fusion, part only; not given: Ig Fc portion, mouse, UniProt Q8CGK5 21-227, looked up, part only)
chain, part: RPRLAPPRNVTLFSQNFTVYLTWLPGLGSPPNVTYFVTYQSYIKTGWRPVEHCAGIKALVCPLMCLKKLNLYSKFKGRVQAASAHGRSPRVESRYLEYLFDVELAPPTLVLTQMEKILRVNATYQLPPCMPSLELKYQVEFWKEGLGSKTLFPDTPYGQPVQIPLQQGASRRHCLSARTVYTLIDIKYSQFSEPSCIFLEAPGDKRA
Percent Inhibition of Ligand-induced Interferon Stimulated Response Element (ISRE) Signaling by Soluble Receptors [31]: 103%
Percent Inhibition of Ligand-induced Interferon Stimulated Response Element (ISRE) Signaling by Soluble Receptors [32]: 91%
Percent Inhibition of Ligand-induced Interferon Stimulated Response Element (ISRE) Signaling by Soluble Receptors [33]: 89%

B3: IL-29-CEE: IL-29 conjugated with glu tag (protein, UniProt Q8IU54 20-200, looked up)
Interferon lambda-1: GPVPTSKPTTTGKGCHIGRFKSLSPQELASFKKARDALEESLKLKNWSCSSPVFPGNWDLRLLQVRERPVALEAELALTLKVLEAAAGPALEDVLDQPLHTLHHILSQLQACIQPQPTAGPRPRGRLHHWLHRLQEAPKKESAGCLEASVTFNLFRLLTRDLKYVADGNLCLRTSTHPEST
modifications: Glu-Glu tag
notes: IL-29 conjugated with glu tag
effect on proliferation of Daudi cells (Daudi cells): no significant effect
